Assay results taken from paper doi:10.1101/2025.08.18.670902, “Pyrimethamine inhibits mutant NRF2 as a molecular glue” (bioRxiv, 2025).

Molecular target: T1, Kelch fragment (Ala321-Glu611 of human KEAP1 protein) (human, UniProt Q14145 321-611, biotinylated (site not stated))
T1 construct: KEAP1, human, Kelch fragment Ala321-Glu611, printed MW 34,038.03 Da; Captured on a streptavidin chip through biotin; also called Kelch fragment of KEAP1; biotinylated Kelch; source: expressed in vitro, purified, biotinylated, validated by LC-MS
Test: SPR; Biacore S200, biotinylated Kelch immobilised on a streptavidin chip; peptide analyte in 2-fold dilutions 200 μM to 0.39 μM, 30 μl/min, 90 s association, 180 s dissociation, analysis at 15 °C; without PYR
Conditions: both partners purified

T1 sequence (Q14145 321-611): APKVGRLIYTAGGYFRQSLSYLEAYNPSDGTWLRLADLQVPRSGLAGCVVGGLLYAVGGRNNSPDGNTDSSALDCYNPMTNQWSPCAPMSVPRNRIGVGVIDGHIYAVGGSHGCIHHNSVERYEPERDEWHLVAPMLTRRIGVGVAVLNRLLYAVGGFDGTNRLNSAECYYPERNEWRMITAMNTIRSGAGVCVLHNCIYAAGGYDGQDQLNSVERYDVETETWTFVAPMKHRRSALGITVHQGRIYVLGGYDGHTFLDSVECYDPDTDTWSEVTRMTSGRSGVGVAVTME

B1: DLG^WT peptide (NRF2 residues 17-40) (peptide)
peptide: MDLIDILWRQDIDLGVSREVFDFS
notes: NRF2 (NFE2L2), human, residues 17-40 with the DLG motif; also called 24-mer peptide; source: synthetic peptide
B1: binds.
